Laboratory results taken from patent publication US20150190490A1 (ONCOTHERAPY SCIENCE, published 2015).

What was measured:
[1] = biological target: T1, HLA-DR4 (DRB1*04:05) (human); test: concluded from IFN-gamma ELISPOT restriction analysis (peptide-pulsed L-DR4 cells, blocking mAbs)
T1 construct: whole, on cells; MHC class II molecule on mouse L-cell transfectants (L-DR4), donor PBMCs or DCs; also called L-DR4; L-DR0405
Protocol: (§1) On day 5, the DCs were cultured in the presence of the recombinant CDCA1 (50 micro g/ml) and OK432. The protein-loaded mature DCs were harvested on day 7, washed and used as stimulator in IFN-gamma ELISPOT assays. To determine restriction HLA molecules involved in antigen presentation, blocking of antigen-induced IFN-gamma production was investigated by adding anti-HLA-DR mAb (L243, Biolegend), anti-HLA-DP mAb, (B7/21, abcam), anti-human HLA-DQ mAb (SPV-L3, abcam), or anti-HLA class I mAb, (W6/32, abcam). All mAbs were used at a final concentration of 5 micro g/ml. All assessments of IFN-gamma ELISPOT assays were carried out in duplicate or triplicate, and results corresponded to mean values.
(§2) The immune responses of T-cells to PBMC, L-cells, and murine BM-DC pulsed with peptides (10 micro g/mL) or CDCA1 proteins-loaded human DCs (50 micro g/mL) were assessed by IFN-gamma ELISPOT assays (BD Biosciences, San Jose, Calif.) according to manufacturer's instructions and described previously (Zarour H M et al., Cancer Res 2000; 60:4946-52.). In briefly, peptide-pulsed PBMCs (3×10⁴/well), L-cells (5×10⁴/well), T2 cells (2×10⁴/well), C1R-A24 cells (2×10⁴/well), bone marrow-derived DCs (BM-DCs, 2×10⁴/well), or protein-loaded DCs (5×10³/well) were seeded in triplicate or duplicate in the ELISPOT plates as APCs or target cells. […] After incubation for 18 h, spot numbers were counted. […]

[2] = biological target: T2, HLA-DR15 (DRB1*15:02) (human); test: concluded from IFN-gamma ELISPOT restriction analysis (peptide-pulsed L-DR15 cells, blocking mAbs)
T2 construct: whole, on cells; MHC class II molecule on mouse L-cell transfectants (L-DR15) or donor PBMCs; also called L-DR15
Protocol: as §1, §2

binding result [1]: binds | binding result [2]: binds
B1: CDCA1 (55-78) long peptide (peptide)
peptide: IVYGIRLEHFYMMPVNSEVMYPHL
notes: Synthetic long peptide (purity >90%), pulsed onto antigen presenting cells; also called CDCA1 (55-78) LP; CDCA1 (55-78)-LP
